Laboratory results reported in US20060073148A1.

Key:
[1] = target: cynomolgus monkey IL-13 (NHP IL-13), recombinant (cynomolgus monkey); assay: cell-based or functional assay
[2] = target: native human IL-13 (crude preparation from activated human cord blood Th2 cells) (human) (UniProt P35225); assay: cell-based or functional assay
native human IL-13 (crude preparation from activated human cord blood Th2 cells) (human), sequence (P35225 other isoform, or with tags, fused parts or gaps, form in doubt): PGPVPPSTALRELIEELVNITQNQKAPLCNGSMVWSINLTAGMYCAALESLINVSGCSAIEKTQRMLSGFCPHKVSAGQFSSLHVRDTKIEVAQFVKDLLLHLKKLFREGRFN

cynomolgus monkey IL-13 (NHP IL-13), recombinant (cynomolgus monkey), sequence (Q5I6E4 other isoform, or with tags, fused parts or gaps): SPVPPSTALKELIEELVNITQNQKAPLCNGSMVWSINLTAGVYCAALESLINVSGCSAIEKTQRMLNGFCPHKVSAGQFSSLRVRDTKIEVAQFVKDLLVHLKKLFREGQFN

B1: antibody with the murine heavy chain of MJ2-7 and a humanized light chain (antibody, part only; not given: humanized light chain, V domains shown, part only)
VH: EVQLQQSGAELVKPGASVKLSCTGSGFNIKDTYIHWVKQRPEQGLEWIGRIDPANDNIKYDPKFQGKATITADTSSNTAYLQLNSLTSEDTAVYYCARSEENWYDFFDYWGQGTTLTVSS
IC50, CD23 expression assay [1]: 0.308 nM
IC50, STAT6 phosphorylation assay [2]: 0.554 nM
